Assay results from the Human Domainome abundance scans (Beltran et al. 2025).
± gives the uncertainty stated by the source.

Test: abundance fitness (aPCA) (normalised: wild type 0, dead -1); higher = more abundant; growth selection in yeast, the domain comes from the species named
Conditions: Homo sapiens
For “Lipoamide acyltransferase component of branched-chain alpha-keto acid dehydrogenase complex, mitochondrial L201S, P11182”, the abundance fitness was -0.171 ± 0.061.
“Lipoamide acyltransferase component of branched-chain alpha-keto acid dehydrogenase complex, mitochondrial P175F, P11182” showed an abundance fitness of -0.098 ± 0.064.
“Lipoamide acyltransferase component of branched-chain alpha-keto acid dehydrogenase complex, mitochondrial S194F, P11182” gave an abundance fitness of -0.917 ± 0.088.
Work on “Lipoamide acyltransferase component of branched-chain alpha-keto acid dehydrogenase complex, mitochondrial A176D, P11182” yielded an abundance fitness of -0.047 ± 0.043.
“Lipoamide acyltransferase component of branched-chain alpha-keto acid dehydrogenase complex, mitochondrial D197M, P11182” showed an abundance fitness of -0.382 ± 0.082.
Work on “Lipoamide acyltransferase component of branched-chain alpha-keto acid dehydrogenase complex, mitochondrial D204H, P11182” yielded an abundance fitness of -0.946 ± 0.16.
In the case of “Lipoamide acyltransferase component of branched-chain alpha-keto acid dehydrogenase complex, mitochondrial T213C, P11182”, the abundance fitness is reported as -0.179 ± 0.074.
For “Lipoamide acyltransferase component of branched-chain alpha-keto acid dehydrogenase complex, mitochondrial S189A, P11182”, the abundance fitness was -0.03 ± 0.04.
Work on “Lipoamide acyltransferase component of branched-chain alpha-keto acid dehydrogenase complex, mitochondrial L180Y, P11182” yielded an abundance fitness of -0.079 ± 0.1.
For “Lipoamide acyltransferase component of branched-chain alpha-keto acid dehydrogenase complex, mitochondrial E203H, P11182”, the abundance fitness was -0.124 ± 0.059.
Work on “Lipoamide acyltransferase component of branched-chain alpha-keto acid dehydrogenase complex, mitochondrial G195I, P11182” yielded an abundance fitness of -0.867 ± 0.15.
Work on “Lipoamide acyltransferase component of branched-chain alpha-keto acid dehydrogenase complex, mitochondrial R199S, P11182” yielded an abundance fitness of -0.08 ± 0.048.
With “Lipoamide acyltransferase component of branched-chain alpha-keto acid dehydrogenase complex, mitochondrial A176I, P11182” the abundance fitness was -0.115 ± 0.089.
In the case of “Lipoamide acyltransferase component of branched-chain alpha-keto acid dehydrogenase complex, mitochondrial T171S, P11182”, the abundance fitness is reported as -0.267 ± 0.075.
With Nanos homolog 2 K112R, P60321 the abundance fitness was -0.171 ± 0.096.
Work on “Lipoamide acyltransferase component of branched-chain alpha-keto acid dehydrogenase complex, mitochondrial Y208E, P11182” yielded an abundance fitness of -0.032 ± 0.041.
Substance “Lipoamide acyltransferase component of branched-chain alpha-keto acid dehydrogenase complex, mitochondrial G198Q, P11182” has an abundance fitness of -0.301 ± 0.051.
Substance “Lipoamide acyltransferase component of branched-chain alpha-keto acid dehydrogenase complex, mitochondrial L188K, P11182” has an abundance fitness of -0.578 ± 0.052.
In the case of “Lipoamide acyltransferase component of branched-chain alpha-keto acid dehydrogenase complex, mitochondrial L201T, P11182”, the abundance fitness is reported as 0.035 ± 0.054.
In the case of “Lipoamide acyltransferase component of branched-chain alpha-keto acid dehydrogenase complex, mitochondrial E210L, P11182”, the abundance fitness is reported as -0.133 ± 0.041.
“Lipoamide acyltransferase component of branched-chain alpha-keto acid dehydrogenase complex, mitochondrial L206W, P11182” gave an abundance fitness of -0.135 ± 0.052.
“Lipoamide acyltransferase component of branched-chain alpha-keto acid dehydrogenase complex, mitochondrial Y208H, P11182” gave an abundance fitness of -0.075 ± 0.097.
In the case of “Lipoamide acyltransferase component of branched-chain alpha-keto acid dehydrogenase complex, mitochondrial G198V, P11182”, the abundance fitness is reported as -1.04 ± 0.085.
Substance “Lipoamide acyltransferase component of branched-chain alpha-keto acid dehydrogenase complex, mitochondrial V192I, P11182” has an abundance fitness of -0.041 ± 0.086.
“Lipoamide acyltransferase component of branched-chain alpha-keto acid dehydrogenase complex, mitochondrial K196L, P11182” gave an abundance fitness of -0.175 ± 0.04.
“Lipoamide acyltransferase component of branched-chain alpha-keto acid dehydrogenase complex, mitochondrial G198H, P11182” showed an abundance fitness of -0.267 ± 0.062.
Work on “Lipoamide acyltransferase component of branched-chain alpha-keto acid dehydrogenase complex, mitochondrial E210R, P11182” yielded an abundance fitness of 0.008 ± 0.039.
“Lipoamide acyltransferase component of branched-chain alpha-keto acid dehydrogenase complex, mitochondrial L201M, P11182” showed an abundance fitness of -0.141 ± 0.069.
“Lipoamide acyltransferase component of branched-chain alpha-keto acid dehydrogenase complex, mitochondrial P175K, P11182” showed an abundance fitness of 0.024 ± 0.042.
Work on “Lipoamide acyltransferase component of branched-chain alpha-keto acid dehydrogenase complex, mitochondrial T171Q, P11182” yielded an abundance fitness of -0.391 ± 0.09.
For “Lipoamide acyltransferase component of branched-chain alpha-keto acid dehydrogenase complex, mitochondrial L188E, P11182”, the abundance fitness was -0.391 ± 0.048.
For “Lipoamide acyltransferase component of branched-chain alpha-keto acid dehydrogenase complex, mitochondrial G195W, P11182”, the abundance fitness was -1.25 ± 0.11.
“Lipoamide acyltransferase component of branched-chain alpha-keto acid dehydrogenase complex, mitochondrial L206S, P11182” gave an abundance fitness of -0.072 ± 0.049.
Substance “Lipoamide acyltransferase component of branched-chain alpha-keto acid dehydrogenase complex, mitochondrial G214R, P11182” has an abundance fitness of -0.002 ± 0.039.
Work on “Lipoamide acyltransferase component of branched-chain alpha-keto acid dehydrogenase complex, mitochondrial G193R, P11182” yielded an abundance fitness of -0.692 ± 0.04.
